Assay results as given in PMC7986998.

Molecular target: human ACE2-Fc (human) (UniProt Q9BYF1)
Test: ELISA

Sequence of human ACE2-Fc (human) (Q9BYF1 18-740): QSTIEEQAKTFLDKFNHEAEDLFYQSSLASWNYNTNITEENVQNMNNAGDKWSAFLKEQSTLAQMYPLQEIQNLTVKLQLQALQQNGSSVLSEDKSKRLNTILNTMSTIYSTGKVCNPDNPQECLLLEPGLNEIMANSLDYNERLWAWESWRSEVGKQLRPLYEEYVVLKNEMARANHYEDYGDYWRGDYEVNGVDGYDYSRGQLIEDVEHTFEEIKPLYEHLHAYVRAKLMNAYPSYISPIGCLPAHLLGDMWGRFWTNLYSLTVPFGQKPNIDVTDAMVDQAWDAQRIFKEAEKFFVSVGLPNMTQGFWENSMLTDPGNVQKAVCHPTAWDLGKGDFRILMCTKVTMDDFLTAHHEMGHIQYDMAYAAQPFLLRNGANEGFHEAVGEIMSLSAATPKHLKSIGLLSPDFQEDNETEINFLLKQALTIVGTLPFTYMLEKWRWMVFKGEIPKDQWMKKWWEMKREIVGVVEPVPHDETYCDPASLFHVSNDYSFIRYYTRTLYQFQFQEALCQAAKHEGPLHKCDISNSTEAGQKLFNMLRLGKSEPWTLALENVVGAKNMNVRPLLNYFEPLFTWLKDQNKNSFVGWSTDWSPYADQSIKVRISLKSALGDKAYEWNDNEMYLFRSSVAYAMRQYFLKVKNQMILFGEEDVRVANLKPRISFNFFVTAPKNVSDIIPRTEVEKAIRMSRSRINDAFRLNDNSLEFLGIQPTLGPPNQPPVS

SARS-CoV S 2P ectodomain trimer (from UniProt P59594 14-1195) (domain or fragment)
EC50: 4.11 nM
